The labels stand for the following.
T1: Grem2 K66A/K69A/K147A/K148A (UniProt O88273 22-168, K66A | K69A | K147A | K148A)
T1 sequence: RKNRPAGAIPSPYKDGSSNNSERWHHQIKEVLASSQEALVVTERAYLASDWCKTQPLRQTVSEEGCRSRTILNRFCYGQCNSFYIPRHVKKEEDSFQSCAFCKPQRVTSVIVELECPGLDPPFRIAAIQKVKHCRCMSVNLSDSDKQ

T2: Grem2 K147A/K148A/K151A/K153A (UniProt O88273 22-168, K147A | K148A | K151A | K153A)
T2 sequence: T1 sequence with A45K, A48K, K130A, K132A

T3: Grem2 K111A/K112A/K151A/K153A (UniProt O88273 22-168, K111A | K112A | K151A | K153A)
T3 sequence: T1 sequence with A45K, A48K, K90A, K91A, A126K, A127K, K130A, K132A

T4: Gremlin-2 wild type (UniProt O88273 22-168)
T4 sequence: T1 sequence with A45K, A48K, A126K, A127K

B1: Grem2 K66A/K69A (natural protein)
chain: T1 sequence with A126K, A127K
B2: Grem2 K111A/K112A (natural protein)
chain: T1 sequence with A45K, A48K, K90A, K91A, A126K, A127K
B3: Recombinant mature BMP2 (ligand, UniProt P12643 283-396, looked up)
chain: QAKHKQRKRLKSSCKRHPLYVDFSDVGWNDWIVAPPGYHAFYCHGECPFPLADHLNSTNHAIVQTLVNSVNSKIPKACCVPTELSAISMLYLDENEKVVLKNYQDMVVEGCGCR
B4: Grem2 K151A/K153A (natural protein)
chain: T1 sequence with A45K, A48K, A126K, A127K, K130A, K132A
B5: Grem2 K147A/K148A (natural protein)
chain: T1 sequence with A45K, A48K

The series “SEC” deals with the molecule itself. Put plainly: SEC.
For series [1], the target named is T1, Grem2 K66A/K69A/K147A/K148A. Briefly: SPR. For orientation: In SPR one partner is held on a chip, and binding of the other changes the refractive index at the surface.
The target in the series “Grem2 K66A/K69A” is B1. Briefly: SPR.
The target in the series “Grem2 K151A/K153A” is B4. Put plainly: SPR.
Series [2] addresses T2, Grem2 K147A/K148A/K151A/K153A. Briefly: SPR.
The target in the series “Grem2 K147A/K148A” is B5. Briefly: SPR.
In the series “Grem2 K111A/K112A” the target is B2. Briefly: SPR.
Series [3] concerns the target T3, Grem2 K111A/K112A/K151A/K153A. Put plainly: SPR.
A further series has as its target T4, Gremlin-2 wild type. Briefly: SPR.

Broadly, the stoichiometry N is a count of units in the complex or per binding partner. What is called Kd is the equilibrium constant for the complex coming apart. A low value points to tighter binding.

Numbering of substitutions follows the chain as printed. Names and notes keep the numbering of the source.

In the case of B1, the “stoichiometry N” value in the series “SEC” came to 2.
For the molecule B2, the “stoichiometry N” value in the series “SEC” was found to be 2.
For the molecule B3, the Kd amounted to 5.66 nM in series [1]; 2.4 nM in the series with Grem2 K66A/K69A; 1.3 nM with Grem2 K151A/K153A; 4.4 nM in [2]; 1.98 nM with Grem2 K147A/K148A; 1.77 nM with Grem2 K111A/K112A. The Kd in series [3] turned out to be 2.11 nM; with Gremlin-2 wild type, 1.42 nM.
Turning to B4, the “stoichiometry N” value in “SEC” worked out at 2.
For the molecule B5, the “stoichiometry N” value in “SEC” turned out to be 2.

The record behind these values is paper PMC5510646 (The Biochemical journal, 2017).
